# Results: article PMC6555819, “Comprehensive study of nuclear receptor DNA binding provides a revised framework for understanding receptor specificity”
# B1: NRC3_wobSeed125_DR5_A14G_o1 (dsDNA)
# DNA 1: GCCCTTACGGGTCGCTGACAGGTTATAGCATTTGGAGCGATTGACAGCGTAGAATGAAGG
# DNA 2: CCTTCATTCTACGCTGTCAATCGCTCCAAATGCTATAACCTGTCAGCGACCCGTAAGGGC
# B2: NRC3_wobSeed125_DR5_G11T_o1 (dsDNA)
# DNA 1: GCCCTTACGGTTCACTGACAGGTTATAGCATTTGGAGCGATTGACAGCGTAGAATGAAGG
# DNA 2: CCTTCATTCTACGCTGTCAATCGCTCCAAATGCTATAACCTGTCAGTGAACCGTAAGGGC
# B3: NRC3_wobSeed133_DR5_G22C_o1 (dsDNA)
# DNA 1: GCCGTCCAAGGTCAATGCTAGCTCAGTGAAAGCATTGCGATTGACAGCGTAGAATGAAGG
# DNA 2: CCTTCATTCTACGCTGTCAATCGCAATGCTTTCACTGAGCTAGCATTGACCTTGGACGGC
# B4: NRC3_wobSeed28_DR1_T23A_o1 (dsDNA)
# DNA 1: GCCCTACTGGGCCAAAGGTCATAGATTCCAATGCTCGCGATTGACAGCGTAGAATGAAGG
# DNA 2: CCTTCATTCTACGCTGTCAATCGCGAGCATTGGAATCTATGACCTTTGGCCCAGTAGGGC
# B5: NRC3_wobSeed65_DR2_T6C_o1 (dsDNA)
# DNA 1: GCATACGTAGGTTATCGGGTCATTCAGTTTGCGCATGCGATTGACAGCGTAGAATGAAGG
# DNA 2: CCTTCATTCTACGCTGTCAATCGCATGCGCAAACTGAATGACCCGATAACCTACGTATGC
# B6: NRC3_wobSeed40_DR1_A21T_o1 (dsDNA)
# DNA 1: GCTAGCCTAGGTCATGGGCCTGTATACCACGCGAACGCGATTGACAGCGTAGAATGAAGG
# DNA 2: CCTTCATTCTACGCTGTCAATCGCGTTCGCGTGGTATACAGGCCCATGACCTAGGCTAGC
# B7: NRC3_wobSeed61_DR2_C21G_o1 (dsDNA)
# DNA 1: GCCGTCCAAGGTCAGCAGGTGAGTGAAAGCGACGTGGCGATTGACAGCGTAGAATGAAGG
# DNA 2: CCTTCATTCTACGCTGTCAATCGCCACGTCGCTTTCACTCACCTGCTGACCTTGGACGGC
# B8: NRC3_wobSeed90_DR3_G9C_o1 (dsDNA)
# DNA 1: GCCATACACGGTCAGCTAGGCCAGAGTAGGGACGGCGCGATTGACAGCGTAGAATGAAGG
# DNA 2: CCTTCATTCTACGCTGTCAATCGCGCCGTCCCTACTCTGGCCTAGCTGACCGTGTATGGC
# B9: NRC3_wobSeed119_DR4_A9G_o1 (dsDNA)
# DNA 1: GCGGAACGGGGGCATTCGAGTTGATAGCATGGCGATGCGATTGACAGCGTAGAATGAAGG
# DNA 2: CCTTCATTCTACGCTGTCAATCGCATCGCCATGCTATCAACTCGAATGCCCCCGTTCCGC
# B10: NRC3_wobSeed85_DR3_A27T_o1 (dsDNA)
# DNA 1: GCCGTCCAAGGTCAGAGAGGTCAGTGTATGCCGAGTGCGATTGACAGCGTAGAATGAAGG
# DNA 2: CCTTCATTCTACGCTGTCAATCGCACTCGGCATACACTGACCTCTCTGACCTTGGACGGC
# B11: NRC3_wobSeed85_DR3_A28C_o1 (dsDNA)
# DNA 1: GCCGTCCAAGGTCAGAGAGGTCAGTGACTGCCGAGTGCGATTGACAGCGTAGAATGAAGG
# DNA 2: CCTTCATTCTACGCTGTCAATCGCACTCGGCAGTCACTGACCTCTCTGACCTTGGACGGC
# B12: NRC3_wobSeed20_DR0_G4A_o1 (dsDNA)
# DNA 1: GCAAAATGAGGTTAAGATCAGGGAAACAGAATACATGCGATTGACAGCGTAGAATGAAGG
# DNA 2: CCTTCATTCTACGCTGTCAATCGCATGTATTCTGTTTCCCTGATCTTAACCTCATTTTGC
# B13: NRC3_wobSeed79_DR3_C17A_o1 (dsDNA)
# DNA 1: GCTCATATAGGTAATAAAGGTGAAAGTCGGCATCTAGCGATTGACAGCGTAGAATGAAGG
# DNA 2: CCTTCATTCTACGCTGTCAATCGCTAGATGCCGACTTTCACCTTTATTACCTATATGAGC
# Target: PPARg:RXRa (Homo sapiens, UniProt P37231;P19793 full;full)
# Sequence (P37231 29-505, chain 1 of 2): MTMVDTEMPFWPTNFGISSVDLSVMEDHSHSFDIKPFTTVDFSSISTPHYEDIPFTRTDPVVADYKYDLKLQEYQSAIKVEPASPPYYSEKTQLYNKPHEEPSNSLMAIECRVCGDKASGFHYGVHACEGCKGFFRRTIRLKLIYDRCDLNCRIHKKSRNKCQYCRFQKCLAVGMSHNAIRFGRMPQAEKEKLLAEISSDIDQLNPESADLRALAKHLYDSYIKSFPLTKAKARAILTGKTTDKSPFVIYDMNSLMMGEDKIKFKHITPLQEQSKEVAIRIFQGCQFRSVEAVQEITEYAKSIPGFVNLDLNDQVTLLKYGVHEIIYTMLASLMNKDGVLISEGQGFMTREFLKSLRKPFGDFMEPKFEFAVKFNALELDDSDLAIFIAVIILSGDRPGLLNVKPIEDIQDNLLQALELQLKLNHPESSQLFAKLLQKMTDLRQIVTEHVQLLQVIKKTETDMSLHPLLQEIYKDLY
# Sequence (P19793 whole entry, chain 2 of 2): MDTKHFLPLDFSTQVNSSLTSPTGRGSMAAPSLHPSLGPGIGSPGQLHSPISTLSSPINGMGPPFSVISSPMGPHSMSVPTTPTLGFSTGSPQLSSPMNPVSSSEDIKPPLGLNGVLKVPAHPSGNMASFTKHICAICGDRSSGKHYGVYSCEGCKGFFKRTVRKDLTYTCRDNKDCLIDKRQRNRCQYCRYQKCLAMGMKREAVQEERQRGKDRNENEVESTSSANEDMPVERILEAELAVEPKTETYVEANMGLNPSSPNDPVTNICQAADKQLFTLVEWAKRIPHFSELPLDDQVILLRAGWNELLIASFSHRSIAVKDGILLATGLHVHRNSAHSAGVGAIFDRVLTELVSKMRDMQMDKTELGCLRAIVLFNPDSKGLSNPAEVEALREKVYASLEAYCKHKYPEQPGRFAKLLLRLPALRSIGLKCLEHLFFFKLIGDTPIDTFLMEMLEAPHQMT
# Test: no ligand; PBM; 180 nM : 90 nM RXRa; PBS pH 7.4, 2% milk, 0.02% Triton X-100, 1 mM DTT, BSA, 0.4 mg/ml salmon testes DNA
# Conditions: tags: His kept;His cleaved; copies: 1;1; label: surface-attached array probe
row,Binder,binding signal
1,B1,0.49 PBM z-score against 500 random probes
2,B2,0.49 PBM z-score against 500 random probes
3,B3,3.28 PBM z-score against 500 random probes
4,B4,12.8 PBM z-score against 500 random probes
5,B5,3.06 PBM z-score against 500 random probes
6,B6,3.23 PBM z-score against 500 random probes
7,B7,3.18 PBM z-score against 500 random probes
8,B8,0.49 PBM z-score against 500 random probes
9,B9,3 PBM z-score against 500 random probes
10,B10,3.51 PBM z-score against 500 random probes
11,B11,3.39 PBM z-score against 500 random probes
12,B12,3.12 PBM z-score against 500 random probes
13,B13,3.46 PBM z-score against 500 random probes
